Values joined by “and” are separate entries in the source; they are usually repeats but may differ in a detail not shown here. Identical values can stand only once. Like-named read-outs stand apart in the source and are kept apart here.

The values that follow come from patent US20260201020A1, “METHODS FOR EXPRESSION OF FUSION-FREE BOVINE ULTRALONG CDR3 SCAFFOLD” (priority 2022, published 2026).

Series [1] can be described thus: Capillary isoelectric focusing (cIEF), isoelectric point. Particulars: non-reduced; mature knob expression, 2 L scale. Type of series: physicochemical. Here is the method:
Capillary isoelectric focusing (cIEF): 2 mg/mL knob protein samples were diluted 2-fold by combining 30 microliter of sample with 30 μL of Milli-Q water. 20 μL of the diluted sample was added to 180 μL of Master Mix comprised of: 35% of 1% Methyl cellulose, 10 mM of 0.5M Arginine, 10 mM of 0.25M Iminodiacetic acid, 4% of pI 3-10 Pharmalyte solution, 1% of pI 4.05 marker, 1% of pI 9.5 marker, 2M of 8M Urea, and Milli-Q water. The total amount of 200 μL was then aliquoted into the sample plate for iCIEF analysis. Separation of the analyte occurs in the Maurice capillary cIEF cartridge (Bio-techne PN: PS-MC02-C) set to 55 seconds of sample load, and 1 min at 1500 V then 15 min at 3000 V. Both absorbance and fluorescence detection settings were enabled. Absorbance exposure time was set to 0.005 seconds, while fluorescence exposure times were set to 3, 5, 10, 20 and 40 seconds. Data processing was performed by Compass for iCE software (Version: 2.1.0, Build ID: 0226) from Bio-techne.

The next series deals with spike RBD (Severe acute respiratory syndrome coronavirus 2, UniProt P0DTC2).
Series [2] concerns the target SARS-CoV-2-Spike receptor binding domain protein (RBD) (Severe acute respiratory syndrome coronavirus 2, UniProt P0DTC2).
Series [3] deals with SARS-CoV-2 Spike RBD (SARS-CoV-2), P0DTC2.
For series [4] the target is unchanged. The source holds these as a separate data set.
The target is the same in series [5]. This is another data set of the same source.
Series [6] has the same target. The source holds these as a separate data set.
Series [7] has the same target. This is another data set of the same source.
Series [8] shares this target. This is another data set of the same source.
Series [9] shares this target. This is another data set of the same source.
For series [10] the target is unchanged. This is another data set of the same source.
For series [11] the target is unchanged. This is another data set of the same source.
Series [12] shares this target. The source holds these as a separate data set.
For series [13] the target is unchanged. The source holds these as a separate data set.
The target is the same in series [14]. The source holds these as a separate data set.
For series [15] the target is unchanged. This is another data set of the same source.
Series [16] has the same target. This is another data set of the same source.
Series [17] shares this target. This is another data set of the same source.
The target is the same in series [18]. This is another data set of the same source.
Series [19] has the same target. This is another data set of the same source.
The target is the same in series [20]. The source holds these as a separate data set.
For series [21] the target is unchanged. This is another data set of the same source.
Series [22] has the same target. This is another data set of the same source.
Series [23] shares this target. The source holds these as a separate data set.
Series [24] has the same target. This is another data set of the same source.
Series [25] shares this target. The source holds these as a separate data set.
Series [26] has the same target. The source holds these as a separate data set.
Series [27] has the same target. The source holds these as a separate data set.
For series [28] the target is unchanged. The source holds these as a separate data set.

In the case of “R2F12-mini (GGSNACPDDFDYRCSCIGGCGCARKGCVGPLCCRSDLGGYLTDSPA)”, in series [1], the “Isoelectric Point (pI) Determination by iCEF” value is listed as 5.15 (non-reduced). The “binding activity to spike RBD” value with spike RBD was “maintain binding activity”. The “Amino Acid Sequence of Binding Epitopes to Spike RBD Protein as determined by HDX Analysis: Major Epitope” value in series [2] was 154-194 (Major and 154-192 (Major.
“R2G3-mini (GSTCPDGYEHTCGCIGGCGCKRSACIGALCCQASLGGWLS)”: the “Isoelectric Point (pI) Determination by iCEF” value in series [1] was 7.37 (non-reduced). Further, the “binding activity to spike RBD” value in the series with spike RBD was “maintain binding activity”. Also, in series [2], the “Amino Acid Sequence of Binding Epitopes to Spike RBD Protein as determined by HDX Analysis: Major Epitope” value is 154-192 (Major and 154-194 (Major; the “RBD amino acid sequence with maximum protection against deuterium uptake” value is 158-184.

B1: R2F12-His (peptide)
chain: GGGGAMGSKTKNACPDDFDYRCSCIGGCGCARKGCVGPLCCRSDLGGYLTDSPAYIYLGGGGSGGGGSHHHHHH
modifications: not checked
B1: the Adjusted Binding Rate in series [3] stood at 1.62 nm/s; in [4], 2.46 nm/s; in series [5] it was 1.33 nm/s; in [6], 1.67 nm/s; in series [7] it was 3.6 nm/s; in [8], 9.3 nm/s. In addition, the Adjusted Binding Rate in series [9] amounted to 9.6 nm/s; in [10], 14.9 nm/s; in [11] it was 1.3 nm/s; in series [12] it was 2.38 nm/s; in series [13], 0.62 nm/s; in series [14], 2.11 nm/s. For the same molecule, the Adjusted Binding Rate in series [15] amounted to 2.68 nm/s; in [16], 2.69 nm/s; in series [17], 3.32 nm/s; in series [18] it was 5.37 nm/s; in series [19], 3.86 nm/s; in [20] it was 4.69 nm/s. In addition, the Adjusted Binding Rate was 3.61 nm/s in [21]; 2.76 nm/s in [22]; 4.7 nm/s in [23]; 3.54 nm/s in series [24]; 0.4 nm/s in series [25]; 0.8 nm/s in series [26]. Further, the Adjusted Binding Rate was 0.5 nm/s in series [27] and 0.8 nm/s in [28].
